According to US20190162720A1:

Assays:
[1] = biological target: anti-biotin antibody (Abcam plc., ab53494, Rabbit polyclonal); test: SPR Biacore T200; protein A/G 100 µg/mL fed over anti-biotin antibody on the chip (Example 2)
[2] = biological target: anti-streptavidin antibody (R&D Systems, Inc., Streptavidin Antibody, Recombinant Monoclonal Rabbit IgG Clone #1220C, MAB9020); test: SPR Biacore T200; protein A/G (six domains) 100 µg/mL fed over anti-streptavidin antibody on the chip (Example 14)
[3] = biological target: anti-BSA antibody (Bioss Inc., bs-0292R, polyclonal antibody); test: SPR Biacore T200; protein A/G (six domains) 100 µg/mL fed over anti-BSA antibody on the chip (Example 16)
[4] = biological target: anti-adiponectin antibody (R&D Systems, Inc., Human Adiponectin/Acrp30 Antibody, Monoclonal Mouse IgG2B, MAB10651); test: SPR Biacore T200; anti-adiponectin antibody 100 µg/mL fed over protein A/G held on the first antibody (Example 5)
[5] = biological target: anti-adiponectin antibody (R&D Systems, Inc., Human Adiponectin/Acrp30 Antibody, Monoclonal Mouse IgG2B, MAB10651); test: SPR Biacore T200; anti-adiponectin antibody 100 µg/mL fed over protein A/G held on the first antibody (Example 3)
[6] = biological target: anti-biotin monoclonal antibody (Abcam plc., ab36406, Mouse monoclonal); test: SPR Biacore T200; protein A/G (six domains) 25 µg/mL fed over anti-biotin monoclonal antibody on the chip (Example 7)
[7] = biological target: anti-CRP antibody (R&D Systems, Inc., Human C-Reactive protein Antibody, Monoclonal Mouse IgG2B, MAB17071-500); test: SPR Biacore T200; anti-CRP antibody 100 µg/mL fed over protein A/G held on anti-mPEG antibody (Example 10)
[8] = biological target: anti-BSA antibody (Bioss Inc., bs-0292R, polyclonal antibody); test: SPR Biacore T200; protein A/G (six domains) 100 µg/mL fed over anti-BSA antibody on the chip (Example 17)
[9] = biological target: anti-biotin antibody (Abcam plc., ab53494, Rabbit polyclonal); test: SPR Biacore T200; protein A/G 100 µg/mL fed over anti-biotin antibody on the chip (Example 5)
[10] = biological target: anti-biotin antibody (Abcam plc., ab53494, Rabbit polyclonal); test: SPR Biacore T200; protein A/G 100 µg/mL fed over anti-biotin antibody on the chip (Example 4)
[11] = biological target: anti-CRP antibody (R&D Systems, Inc., Human C-Reactive protein Antibody, Monoclonal Mouse IgG2B, MAB17071-500); test: SPR Biacore T200; anti-CRP antibody 100 µg/mL fed over protein A/G held on anti-BSA antibody (Example 17)
[12] = biological target: anti-CRP antibody (R&D Systems, Inc., Human C-Reactive protein Antibody, Monoclonal Mouse IgG2B, MAB17071-500); test: SPR Biacore T200; anti-CRP antibody 100 µg/mL fed over protein A/G held on anti-biotin antibody (Example 13)
[13] = biological target: anti-biotin antibody (Abcam plc., ab53494, Rabbit polyclonal); test: SPR Biacore T200; protein A/G 100 µg/mL fed over anti-biotin antibody on the chip (Example 3)
[14] = biological target: anti-biotin monoclonal antibody (Abcam plc., ab36406, Mouse monoclonal); test: SPR Biacore T200; protein A/G (six domains) 100 µg/mL fed over anti-biotin monoclonal antibody on the biotin-PEG chip (Example 12)
[15] = biological target: anti-adiponectin antibody (R&D Systems, Inc., Human Adiponectin/Acrp30 Antibody, Monoclonal Mouse IgG2B, MAB10651); test: SPR Biacore T200; anti-adiponectin antibody 100 µg/mL fed over protein A/G held on the first antibody (Example 2)
[16] = biological target: anti-biotin antibody (Abcam plc., ab53494, Rabbit polyclonal); test: SPR Biacore T200; protein A/G 100 µg/mL fed over anti-biotin antibody on the chip (Example 1)
[17] = biological target: anti-CRP antibody (R&D Systems, Inc., Human C-Reactive protein Antibody, Monoclonal Mouse IgG2B, MAB17071-500); test: SPR Biacore T200; anti-CRP antibody 100 µg/mL fed over protein A/G held on anti-streptavidin antibody (Example 14)
[18] = biological target: anti-mPEG monoclonal antibody (Abcam plc., ab51257, Mouse monoclonal, Anti-Polyethylene glycol antibody [PEG-B-47]); test: SPR Biacore T200; protein A/G (six domains) 1,000 µg/mL fed over anti-mPEG antibody on the mPEG chip (Example 10)
[19] = biological target: anti-adiponectin antibody (R&D Systems, Inc., Human Adiponectin/Acrp30 Antibody, Monoclonal Mouse IgG2B, MAB10651); test: SPR Biacore T200; anti-adiponectin antibody 100 µg/mL fed over protein A/G held on the first antibody (Example 4)
[20] = biological target: anti-CRP antibody (R&D Systems, Inc., Human C-Reactive protein Antibody, Monoclonal Mouse IgG2B, MAB17071-500); test: SPR Biacore T200; anti-CRP antibody 100 µg/mL fed over protein A/G held on anti-biotin antibody (Example 12)
[21] = biological target: anti-CRP antibody (R&D Systems, Inc., Human C-Reactive protein Antibody, Monoclonal Mouse IgG2B, MAB17071-500); test: SPR Biacore T200; anti-CRP antibody 100 µg/mL fed over protein A/G held on anti-mPEG antibody (Example 9)
[22] = biological target: anti-CRP antibody (R&D Systems, Inc., Human C-Reactive protein Antibody, Monoclonal Mouse IgG2B, MAB17071-500); test: SPR Biacore T200; anti-CRP antibody 100 µg/mL fed over protein A/G held on anti-BSA antibody (Example 16)
[23] = biological target: anti-CRP antibody (R&D Systems, Inc., Human C-Reactive protein Antibody, Monoclonal Mouse IgG2B, MAB17071-500); test: SPR Biacore T200; anti-CRP antibody 100 µg/mL fed over protein A/G held on the first antibody (Example 7)
[24] = biological target: anti-CRP antibody (R&D Systems, Inc., Human C-Reactive protein Antibody, Monoclonal Mouse IgG2B, MAB17071-500); test: SPR Biacore T200; anti-CRP antibody 100 µg/mL fed over protein A/G held on anti-BSA antibody (Example 15)
[25] = biological target: anti-BSA antibody (Bioss Inc., bs-0292R, polyclonal antibody); test: SPR Biacore T200; protein A/G (six domains) 100 µg/mL fed over anti-BSA antibody on the chip (Example 15)
[26] = biological target: anti-adiponectin antibody (R&D Systems, Inc., Human Adiponectin/Acrp30 Antibody, Monoclonal Mouse IgG2B, MAB10651); test: SPR Biacore T200; anti-adiponectin antibody 100 µg/mL fed over protein A/G held on the first antibody (Example 1)
[27] = biological target: anti-mPEG monoclonal antibody (Abcam plc., ab51257, Mouse monoclonal, Anti-Polyethylene glycol antibody [PEG-B-47]); test: SPR Biacore T200; protein A/G (six domains) 101 µg/mL fed over anti-mPEG antibody on the mPEG chip (Example 9)
[28] = biological target: anti-biotin monoclonal antibody (Abcam plc., ab36406, Mouse monoclonal); test: SPR Biacore T200; protein A/G (six domains) 100 µg/mL fed over anti-biotin monoclonal antibody on the biotin-PEG chip (Example 13)

For “protein A/G (Pierce 21186, Recombinant Protein A/G from E. coli, six domains)”, the amount of the protein A/G immobilized [1] was 718 RU, the amount of the protein A/G immobilized [2] was 716 RU and the amount of protein A/G immobilized [3] was 497 RU. The Amount of second antibody immobilized [4] was 1560 RU, the Amount of second antibody immobilized [5] was 1610 RU and the amount of the protein A/G immobilized [6] was 622 RU. For the same substance, the Amount of second antibody immobilized [7] was 3450 RU, the amount of the protein A/G immobilized [8] was 507 RU and the amount of the protein A/G immobilized [9] was 890 RU. For the same substance, the amount of the protein A/G immobilized [10] was 884 RU, the Amount of second antibody immobilized [11] was 2680 RU and the Amount of second antibody immobilized [12] was 2890 RU. For the same substance, the amount of the protein A/G immobilized [13] was 890 RU, the amount of the protein A/G immobilized [14] was 603 RU and the Amount of second antibody immobilized [15] was 935 RU. For the same substance, the amount of the protein A/G immobilized [16] was 558 RU, the Amount of second antibody immobilized [17] was 3400 RU and the amount of the protein A/G immobilized [18] was 685 RU. For the same substance, the Amount of second antibody immobilized [19] was 1620 RU, the Amount of second antibody immobilized [20] was 2330 RU and the Amount of second antibody immobilized [21] was 2840 RU. The Amount of second antibody immobilized [22] was 2820 RU, the Amount of second antibody immobilized [23] was 2300 RU and the Amount of second antibody immobilized [24] was 2800 RU. For the same substance, the amount of the protein A/G immobilized [25] was 602 RU, the Amount of second antibody immobilized [26] was 1100 RU and the amount of the protein A/G immobilized [27] was 637 RU. It also gave an amount of the protein A/G immobilized [28] of 828 RU.
